T1: Prochlorococcus marinus CCMP1986 PMM0532 (NP-892650; putative decarbonylase)
T1 sequence: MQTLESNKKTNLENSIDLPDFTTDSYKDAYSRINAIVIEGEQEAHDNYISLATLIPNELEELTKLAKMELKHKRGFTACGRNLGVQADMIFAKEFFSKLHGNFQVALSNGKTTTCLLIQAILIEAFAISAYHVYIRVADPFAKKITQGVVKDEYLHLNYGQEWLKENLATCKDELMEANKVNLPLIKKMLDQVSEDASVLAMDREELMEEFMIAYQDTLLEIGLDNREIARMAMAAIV

B1: PCC7942_orf1594 protein (Synechococcus elongatus PCC 7942 = FACHB-805) (protein)
chain: MFGLIGHLTSLEQARDVSRRMGYDEYADQGLEFWSSAPPQIVDEITVTSATGKVIHGRYIESCFLPEMLAARRFKTATRKVLNAMSHAQKHGIDISALGGFTSIIFENFDLASLRQVRDTTLEFERFTTGNTHTAYVICRQVEAAAKTLGIDITQATVAVVGATGDIGSAVCRWLDLKLGVGDLILTARNQERLDNLQAELGRGKILPLEAALPEADFIVWVASMPQGVVIDPATLKQPCVLIDGGYPKNLGSKVQGEGIYVLNGGVVEHCFDIDWQIMSAAEMARPERQMFACFAEAMLLEFEGWHTNFSWGRNQITIEKMEAIGEASVRHGFQPLALAI
notes: His-tag (C); made in house; host or cells: E. coli BL21 (DE3)
B2: PMM0533: Prochlorococcus marinus CCMP1986 putative aldehyde-generating enzyme (SEQ ID NO: 72) (protein, listed as Prochlorococcus marinus)
chain: MFGLIGHSTSFEDAKRKASLLGFDHIADGDLDVWCTAPPQLVENVEVKSAIGISIEGSYIDSCFVPEMLSRFKTARRKVLNAMELAQKKGINITALGGFTSIIFENFNLLQHKQIRNTSLEWERFTTGNTHTAWVICRQLEMNAPKIGIDLKSATVAVVGATGDIGSAVCRWLINKTGIGELLLVARQKEPLDSLQKELDGGTIKNLDEALPEADIVVWVASMPKTMEIDANNLKQPCLMIDGGYPKNLDEKFQGNNIHVVKGGIVRFFNDIGWNMMELAEMQNPQREMFACFAEAMILEFEKCHTNFSWGRNNISLEKMEFIGAASVKHGFSAIGLDKHPKVLAV

Tests used:
[1] = test system: T1, Prochlorococcus marinus CCMP1986 PMM0532 (NP-892650; putative decarbonylase)
[2] = substrate: CCCCCCCCCCCCCCCCCC(=O)SCCNC(=O)CCNC(=O)[C@H](O)C(C)(C)COP(=O)(O)OP(=O)(O)OC[C@H]1O[C@@H](n2cnc3c(N)ncnc32)[C@H](O)[C@@H]1OP(=O)(O)O; assay: acyl-ACP or acyl-CoA reductase enzyme assay, GC/MS; assay type: biochemical; conditions: other: in the presence of 2 mM NADPH; pH 7.5; 37.0 °C
Protocol: The genomic DNA encoding S. elongatus PCC7492 orf1594 (SEQ ID NO: 66) was cloned into the NcoI and XhoI sites of vector pET-28b under the control of the T7 promoter. The resulting PCC7942_orf1594 protein contained a C-terminal His-tag. An E. coli BL21 strain (DE3) (Invitrogen) was transformed with the plasmid and PCC7942_orf1594 protein was expressed and purified as described in Example 22. The protein solution was stored in the following buffer: 50 mM sodium phosphate, pH 7.5, 100 mM NaCl, 1 mM THP, 10% glycerol. Protein concentration was determined using the Bradford assay (Bio-Rad). 2 mg/ml of PCC7942 orf1594 protein was obtained.
To test PCC7942_orf1594 protein for acyl-ACP or acyl-CoA reductase activity, the following enzyme assays were set-up. 100 μl reactions were set-up in 50 mM Tris-HCl buffer at pH 7.5 with the following components at their respective final concentrations: 10 μM of purified PCC7942_orf1594 protein, 0.01-1 mM acyl-CoA or acyl-ACP, 2 mM MgCl2, 0.2-2 mM NADPH. The reactions were incubated for 1 h at 37° C. and where stopped by adding 100 μl ethyl acetate (containing 5 mg/l 1-octadecene as internal standard). […] 80 μl of the top layer were transferred into GC glass vials and analyzed by GC/MS as described in Example 26. The amount of aldehyde formed was calculated based on the internal standard.

[3] = test system: E. coli MG1655 ΔfadE lacZ::Ptrc ′tesA-fadD; assay: Heterologous expression in a fatty acyl-CoA-producing E. coli strain, GC-MS; assay type: cell-based; conditions: reductase coexpressed with a fatty aldehyde decarbonylase
Description: The genomic DNA encoding Acaryochloris marina MBIC11017 AM1—4041 (YP—001518340; putative fatty aldehyde decarbonylase) (SEQ ID NO: 9) was synthesized and cloned into the NdeI and XhoI sites of vector OP-183 (pACYC derivative) under the control of the Ptrc promoter. The resulting construct was cotransformed with OP80-PCC7942—1594 into E. coli MG1655 ΔfadE lacZ::Ptrc ′tesA-fadD. This strain expresses a cytoplasmic version of the E. coli thioesterase, ′TesA, and the E. coli acyl-CoA synthetase, FadD, under the control of the Ptrc promoter, and therefore produces fatty acyl-CoAs. The cells were grown at 37° C. in M9 minimal media supplemented with 100 μg/ml spectinomycin and 100 μg/ml carbenicillin. The cells were cultured and extracted as in Example 3 and analyzed by GC-MS as described in Example 1.
The genomic DNA encoding Synechocystis sp. PCC6803 sll0208 (NP_442147; putative fatty aldehyde decarbonylase) (SEQ ID NO: 3) was synthesized and cloned into the NdeI and XhoI sites of vector OP-183 (pACYC derivative) under the control of the Ptrc promoter. The genomic DNA encoding Synechocystis sp. PCC6803 sll0209 (NP_442146; acyl-ACP reductase) (SEQ ID NO: 68) was synthesized and cloned into the NcoI and EcoRI sites of vector OP-183 (pACYC derivative) under the control of the Ptrc promoter. The resulting constructs were cotransformed with into E. coli MG1655 ΔfadE lacZ::Ptrc ′tesA-fadD. This strain expresses a cytoplasmic version of the E. coli thioesterase, ′TesA, and the E. coli acyl-CoA synthetase, FadD, under the control of the Ptrc promoter, and therefore produces fatty acyl-CoAs. The cells were grown at 37° C. in M9 minimal media supplemented with 100 μg/ml spectinomycin and 100 μg/ml carbenicillin. The cells were cultured and extracted as in Example 3 and analyzed by GC-MS as described in Example 26.

E. coli MG1655 = assay: Heterologous expression of putative aldehyde-generating enzyme alone in E. coli, GC-MS of extracts; assay type: cell-based; conditions: enzyme expressed alone in E. coli MG1655, M9 minimal media, 37° C.
Protocol: The genomic DNA encoding Synechococcus elongatus PCC7942 orf1594 (YP—400611; putative aldehyde-generating enzyme) (SEQ ID NO: 65) was amplified and cloned into the NcoI and EcoRI sites of vector OP-80 (pCL1920 derivative) under the control of the Ptrc promoter. The resulting construct (“OP80-PCC7942—1594”) was transformed into E. coli MG1655 and the cells were grown at 37° C. in M9 minimal media with 1% (w/v) glucose as carbon source and supplemented with 100 μg/ml spectinomycin. When the culture reached OD600 of 0.8-1.0, it was induced with 1 mM IPTG and cells were grown for an additional 18-20 h at 37° C. Cells from 0.5 ml of culture were extracted with 0.5 ml of ethyl acetate. After sonication for 60 min, the sample was centrifuged at 15,000 rpm for 5 min. The solvent layer was analyzed by GC-MS as described in Example 1.
The genomic DNA encoding Cyanothece sp. ATCC51142 cce—1430 (YP—001802846; putative aldehyde-generating enzyme) (SEQ ID NO: 70) was amplified and cloned into the NcoI and EcoRI sites of vector OP-80 (pCL1920 derivative) under the control of the Ptrc promoter. The resulting construct was transformed into E. coli MG1655 and the cells were grown at 37° C. in M9 minimal media with 1% (w/v) glucose as carbon source and supplemented with 100 μg/ml spectinomycin. The cells were cultured and extracted as in Example 3 and analyzed by GC-MS as described in Example 26.
The genomic DNA encoding P. mariunus CCMP1986 PMM0533 (NP_892651; putative aldehyde-generating enzyme) (SEQ ID NO: 72) and Prochlorococcus mariunus CCMP1986 PMM0532 (NP_892650; putative decarbonylase) (SEQ ID NO: 19) were amplified and cloned into the NcoI and EcoRI sites of vector OP-80 and the NdeI and XhoI sites of vector OP-183, respectively. The resulting constructs were separately transformed and cotransformed into E. coli MG1655 and the cells were grown at 37° C. in M9 minimal media supplemented with 100 μg/ml spectinomycin and 100 μg/ml carbenicillin. The cells were cultured and extracted as in Example 3 and analyzed by GC-MS as described in Example 26.

| Molecule | fatty alcohol, alkane and alkene production (GC/MS) in E. coli MG1655, PMM0533 alone against PMM0533 coexpressed with PMM0532 [1] | Km [2] [µM] | use of acyl-CoA as substrate to produce fatty aldehydes [3] | Km for the reduction of octadecenoyl-ACP in the presence of 2 mM NADPH (in vitro reductase assay, GC/MS) (octadecenoyl-ACP) [µM] | production of fatty aldehydes and fatty alcohols (E. coli MG1655) |
| --- | --- | --- | --- | --- | --- |
| Prochlorococcus marinus CCMP1986 PMM0533 (NP-892651; putative aldehyde-generating enzyme) | E. coli cells transformed with only the P. mariunus CCMP1986 PMM0533-bearing vector did not produce any fatty aldehydes or fatty alcohols. However, E. coli cells cotransformed with PMM0533 and PMM0532-bearing vectors produced hexadecanol, pentadecane and heptadecene | – | – | – | – |
| B1 | – | 45 ± 20 | able to use acyl-CoA as a substrate | 7.8 ± 2 | generates aldehydes in vivo |
| B2 | – | – | – | – | did not produce any fatty aldehydes or fatty alcohols |

Source: patent publication US20110124071A1, “METHODS AND COMPOSITIONS FOR PRODUCING HYDROCARBONS” (priority 2009, published 2011)
